Measured values: patent publication US20240279288A1, “APPLICATION OF PLANT JAZ PROTEINS AND DERIVED POLYPEPTIDES IN PREVENTION AND TREATMENT OF HUMAN AND ANIMAL TUMORS” (ANYANG INSTITUTE OF SINO-COTTON INDUSTRY INNOVATION, priority 2021, published 2024)

Experiments:
[1] = test system: breast cancer cells (MCF7); assay: CCK8 cell viability detection, MCF7; assay type: cell-based, human
Protocol: CCK8 cell viability detection: cell suspension was seeded in 96-well plates at a concentration of 5×10^4 cells/ml (100 μL/well). The plates were placed in the incubator for pre-culture (at 37° C., 5% CO2), and control and protein agents were added to each well 24 h after seeding. The plates were then placed in the incubator for 24 h, followed by addition of 10 μL CCK8 solution into each well and incubation of the plates in the incubator for 0.5-2 h before the absorbance measurement at 450 nm using a microplate reader.
We constructed GhJAZ1 prokaryotic expression plasmid with His-tag to express proteins (see step 2 in Example 4), and then a GhJAZ1 protein, along with 6 His tags, which was approximately 30 KD in size was found by WB detection (A in FIG. 7). The purified GhJAZ1 protein was used to treat breast cancer cells (MCF7) and breast epithelial cells (MCF10A), and the cell viability was measured with CCK8.

[2] = target: uPAR (Homo sapiens, UniProt Q03405); assay: CO-IP experiment with uPAR; assay type: binding; conditions: in vivo
Sequence of uPAR (Q03405 23-305): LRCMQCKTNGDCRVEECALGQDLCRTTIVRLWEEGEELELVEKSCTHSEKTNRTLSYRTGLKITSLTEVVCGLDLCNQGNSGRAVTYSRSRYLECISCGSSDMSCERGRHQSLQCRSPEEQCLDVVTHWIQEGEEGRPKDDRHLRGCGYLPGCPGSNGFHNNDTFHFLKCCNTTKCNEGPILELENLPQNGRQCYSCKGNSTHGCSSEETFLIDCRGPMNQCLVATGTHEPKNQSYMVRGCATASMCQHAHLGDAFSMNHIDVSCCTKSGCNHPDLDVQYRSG
Protocol: Steps of method of CO-IP experiment: Non-denaturing lysate was added to 293T cell culture plate (Pricella, Cat. No.: CL-0005), and the cells were completely lysed at 4° C. The lysate was centrifuged at 12,000 rpm for 10 min and the supernatant was collected. The corresponding antibody was added to the obtained non-denatured protein solution, which was incubated overnight at 4° C. Pierce™ protein A/G magnetic agarose (Thermo Fisher Scientific, Inc.) were washed with lysis buffer, followed by addition pre-treated beads to the cell lysate, and incubation at room temperature for 2 hours. […] The band of interest was detected by Western blotting.
In order to explore how GhJAZ1 enters cancer cells, we cloned the genes of most tumor surface receptors, including uPAR (NCBI database accession number of NM_002659.4), CCK1R (NP_000721.1), CCK2R (NP_001350481.1), HER2 (NP_004439.2), GRPR (NP_005305.1), MUC1 (NP_001358649.1), VEGFR1 (NP_002010.2), Insulin receptor (NM_000208.4), NTR (XM_011528827.2), PSMA (XM_017017432.1), TFR1 (NM_001128148.3), TFR2 (NM_003227.4), PEPT1 (NM_005073.4), APN (NM_001150.3). […] We detected the interaction of GhJAZ1 with uPA (as the ligand of uPAR, NCBI database accession number of NP_002649.2) and uPAR by yeast two hybrid (the steps of the experiment as Example 3). […]

B1: GhJAZ1: cotton JAZ1 protein, gene number Gh_A05G0260, sequence SEQ ID No. 4; prokaryotically expressed with His tag, about 30 KD (protein)
chain: MSSCSESTAMKPARSPEKPSFAQTCNLLSQYLKEKGSFGDLSLGMTCNVEANGTPVVPPPTMNLFPLNDKSDDVCGRNGGNPKNLTSMDLFPQQAGLASKDDSPNKLEPQTAPMTIFYGGQVIVFNDFPANKAKEIMLLASNSSSQSNNSFNPIPFTSSIARSPIESSIGVPPTSKPVHPAQRAVPGDLPIARRASLHRFLEKRKDRITAKAPYQINNSAAAPSLSGDNKSWLGLAAQSP
modifications: His tag
notes: prokaryotically expressed with His tag, about 30 KD
For B1, the IC50 ([1]; CCK8, 24 h treatment, read-out: IC50, inhibition of MCF7 cells) was 691 nM, the “viability of MCF7 cells” value ([1]; with the increase of GhJAZ1 protein concentration) was “decreased significantly” and the “interaction with uPAR” value [2] was “interacts”.
